Values quoted from earlier work, collected in article PMC10093836, “Stabilization of the Dimeric State of SARS-CoV-2 Main Protease by GC376 and Nirmatrelvir” (International Journal of Molecular Sciences, 2023).

Biological target: Mpro (SARS-CoV-2) (UniProt P0DTD1)

Substance: Mpro (from UniProt P0DTD1)
- Kd: 7 µM
